Experimental data: the supplement of paper PMC11246515
± gives the standard deviation of the averaged measurements.

Experiment: total protein half-life in vivo (active degradation + dilution); higher = more stable protein
[1] = E. coli NCM3722 delta-smpB, growth: N-lim chemostat, doubling time 6 h
[2] = wild type E. coli NCM3722, growth: C-lim chemostat, doubling time 12 h
[3] = E. coli NCM3722 delta-clpP delta-lon delta-hslV, growth: N-lim chemostat, doubling time 6 h
[4] = E. coli NCM3722 delta-clpP, growth: N-lim chemostat, doubling time 6 h
[5] = E. coli NCM3722 delta-lon, growth: N-lim chemostat, doubling time 6 h
[6] = wild type E. coli NCM3722, growth: C-lim chemostat, doubling time 3 h
[7] = wild type E. coli NCM3722, growth: C-lim chemostat, doubling time 6 h
[8] = wild type E. coli NCM3722, growth: N-lim chemostat, doubling time 6 h
[9] = wild type E. coli NCM3722, growth: N-lim chemostat, doubling time 12 h
[10] = wild type E. coli NCM3722, growth: P-lim chemostat, doubling time 12 h
[11] = E. coli NCM3722 delta-hslV, growth: N-lim chemostat, doubling time 6 h
[12] = wild type E. coli NCM3722, growth: P-lim chemostat, doubling time 6 h

Sequence	total protein half-life in vivo [1] [h]	total protein half-life in vivo [2] [h]	total protein half-life in vivo [3] [h]	total protein half-life in vivo [4] [h]	total protein half-life in vivo [5] [h]	total protein half-life in vivo [6] [h]	total protein half-life in vivo [7] [h]	total protein half-life in vivo [8] [h]	total protein half-life in vivo [9] [h]	total protein half-life in vivo [10] [h]	total protein half-life in vivo [11] [h]	total protein half-life in vivo [12] [h]
MIKRTLLAAAIFSALPAYAGLTSITAGYDFTDYSGDHGNRNLAYAELVAKVENATLLFNLSQGRRDYETEHFNATRGQGAVWYKWNNWLTTRTGIAFADNTPVFARQDFRQDINLALLPKTLFTTGYRYTKYYDDVEVDAWQGGVSLYTGPVITSYRYTHYDSSDAGGSYSNMISVRLNDPRGTGYTQLWLSRGTGAYTYDWTPETRYGSMKSVSLQRIQPLTEQLNLGLTAGKVWYDTPTDDFNGLQLAARLTWKF	> 8	15.4										
MIKVLIVDDEPLARENLRVFLQEQSDIEIVGECSNAVEGIGAVHKLRPDVLFLDIQMPRISGLEMVGMLDPEHRPYIVFLTAFDEYAIKAFEEHAFDYLLKPIDEARLEKTLARLRQERSKQDVSLLPENQQALKFIPCTGHSRIYLLQMKDVAFVSSRMSGVYVTSHEGKEGFTELTLRTLESRTPLLRCHRQYLVNLAHLQEIRLEDNGQAELILRNGLTVPVSRRYLKSLKEAIGL [P0AFT5]	3.83		5.88	4.54 ± 0.31	5.56	3.04 ± 0.45	5.55 ± 0.23	5.02 ± 0.13	7.03 ± 0.46	10.1 ± 0.16		
MILHAQAKHGKPGLPWLVFLHGFSGDCHEWQEVGEAFADYSRLYVDLPGHGGSAAISVDGFDDVTDLLRKTLVSYNILDFWLVGYSLGGRVAMMAACQGLAGLCGVIVEGGHPGLQNAEQRAERQRSDRQWVQRFLTEPLTAVFADWYQQPVFASLNDDQRRELVALRSNNNGATLAAMLEATSLAVQPDLRANLSARTFAFYYLCGERDSKFRALAAELAADCHVIPRAGHNAHRENPAGVIASLAQILRF						3.44						
MILIIYAHPYPHHSHANKRMLEQARTLEGVEIRSLYQLYPDFNIDIAAEQEALSRADLIVWQHPMQWYSIPPLLKLWIDKVFSHGWAYGHGGTALHGKHLLWAVTTGGGESHFEIGAHPGFDVLSQPLQATAIYCGLNWLPPFAMHCTFICDDETLEGQARHYKQRLLEWQEAHHG [P0A754]	6.82	10.9 ± 0.14		6.16	6.37		4.93		10.5 ± 2.2	10.3 ± 1.5	5.27	6.43 ± 0.21
MILTDPEWQAVLLSLKVSSLAVLFSLPFGIFFAWLLVRCTFPGKALLDSVLHLPLVLPPVVVGYLLLVSMGRRGFIGERLYDWFGITFAFSWRGAVLAAAVMSFPLMVRAIRLALEGVDVKLEQAARTLGAGRWRVFFTITLPLTLPGIIVGTVLAFARSLGEFGATITFVSNIPGETRTIPSAMYTLIQTPGGESGAARLCIISIALAMISLLISEWLARISRERAGR [P0AF01]		9.85	4.97	6.15		3.03	4.97	5.21	9.16			
MILTPIRRYGAMILMLLTLVFSSEVLAKTHTTTASQKSHLTKASNKQVSSKQEYSRNSAKSSSLPDLRKYPSGTPRKKAFLRTVMPYITSQNAAITAERNWLISKQYQGQWSPAERARLKDIAKRYKVKWSGNTRKIPWNTLLERVDIIPTSMVATMAAAESGWGTSKLARNNNNLFGMKCMKGRCTNAPGKVKGYSQFSSVKESVSAYVTNLNTHPAYSSFRKSRAQLRKADQEVTATAMIHKLKGYSTKGKSYNNYLFAMYQDNQRLIAAHM	3.76 ± 0.26	5.88 ± 0.34	0.848			1.22	2.47 ± 0.18					
MINALGLLEVDGMVAAIDAADAMLKAANVRLLSHEVLDPGRLTLVVEGDLAACRAALDAGCAAAMRTGRVISRKEIGRPDDDTQWLVTGFNRQPKQPVREPDAPVIVAESADELLALLTSVRQGMTAGEVAAHFGWPLEKARNALEQLFSAGTLRKRSSRYRLKPH						1.02 ± 0.097						
MINDIKWVQAQRKATDWRQAVEIATRPLVAYGAAQPCYVNGIIENTLNWGPYYLIAPGIALPHARPEQGANYNQVSITTLRTPVAFGNEECDPVWLLLCVSATDANAHILTIQRISQFIDSPQRLTAVGNASTDDALFALVSG	4.08 ± 0.47	6.74 ± 0.098	4.94	4.17 ± 0.58	4.24 ± 0.33		4.65 ± 0.36	4.66	8.43 ± 2.6		4.11	6.04
MINVLLVDDHELVRAGIRRILEDIKGIKVVGEASCGEDAVKWCRTNAVDVVLMDMSMPGIGGLEATRKIARSTADVKIIMLTVHTENPLPAKVMQAGAAGYLSKGAAPQEVVSAIRSVYSGQRYIASDIAQQMALSQIEPEKTESPFASLSERELQIMLMITKGQKVNEISEQLNLSPKTVNSYRYRMFSKLNIHGDVELTHLAIRHGLCNAETLSSQ [P0AED5]	1.67 ± 0.048	4.05 ± 0.16	5.39 ± 0.6	2.492 ± 0.024	2.66 ± 0.048	1.72 ± 0.12	3.04 ± 0.16	1.89 ± 0.24	2.67 ± 0.15	3.89 ± 0.4	1.84 ± 0.24	1.8 ± 0.087
MINVQNVSKTFILHQQNGVRLPVLNRASLTVNAGECVVLHGHSGSGKSTLLRSLYANYLPDEGQIQIKHGDEWVDLVTAPARKVVEIRKTTVGWVSQFLRVIPRISALEVVMQPLLDTGVPREACAAKAARLLTRLNVPERLWHLAPSTFSGGEQQRVNIARGFIVDYPILLLDEPTASLDAKNSAAVVELIREAKTRGAAIVGIFHDEAVRNDVADRLHPMGASS										0.788 ± 0.69		0.0732
MIPVERRQIILEMVAEKGIVSIAELTDRMNVSHMTIRRDLQKLEQQGAVVLVSGGVQSPGRVAHEPSHQVKTALAMTQKAAIGKLAASLVQPGSCIYLDAGTTTLAIAQHLIHMESLTVVTNDFVIADYLLDNSNCTIIHTGGAVCRENRSCVGEAAATMLRSLMIDQAFISASSWSVRGISTPAEDKVTVKRAIASASRQRVLVCDATKYGQVATWLALPLSEFDQIITDDGLPESASRALVKQDLSLLVAKNE	4.76 ± 0.23	8.85 ± 0.59	5.5397 ± 0.0019	4.93 ± 0.35		2.62 ± 0.12	5.33 ± 0.07	4.82 ± 0.13	8.78 ± 0.59	9.046 ± 0.035	4.72 ± 0.089	4.69 ± 0.52
